Key:
primary AML blasts = assay: NSG mouse/human primary AML blasts xenograft model; assay type: in vivo; conditions: NSG mice, UPN09 blasts; 250 μg mAb with 15×10^6 Vγ9Vδ2 T cells i.v. twice a week, weeks 8 to 10 post-graft
Description: NOD-SCID common γ-chain knockout mice (NSG) were purchased from Charles River France or bred in-house and maintained under specific pathogen-free conditions. All animal procedures were in accordance with protocols approved by the local Committee for Animal Experiments. Healthy 6- to 8-weeks-old female mice (n=15) received an injection of 0.2×10^6 luciferase transduced-U937 cells on Day 0, as described^13, and were then randomly assigned in 5 groups to receive intravenous injections of post-expansion-purified Vγ9Vδ2 T cells on Day 1 (30×10^6, 98.8% CD3+TCRVδ2+; Unité de Thérapie Cellulaire et Génique de Nantes) alone or combined to anti-BTN3A 20.1 mAb (250 μg) on Day 2 and 6. Controls comprised NSG mice infused with PBS, or anti-BTN3A 20.1 mAb alone. Mice were imaged with a Photon Imager (Biospace Lab, Paris, France) at different days. For the Primary AML blasts model, NSG mice received sublethal irradiation (2 Gy). On the day after, they received 1×10^6 of CD3-depleted blasts (CD3 depletion Kit, Miltenyi Biotec) isolated from UPN09. […] The peripheral blood number of blasts was quantified during engraftment, before and after treatment by Flow Cytometry (supplementary data 1B). Mice were sacrificed at week 11th post-graft and the number of blasts was quantified in their Bone Marrow (BM).

CD4+ T cells = assay: Functional assay on CD4+ T cells with aAPC, CFSE labeling and cytokine ELISA; assay type: cell-based, human
Procedure: Human CD4^+ T cells were purified by negative selection from PBMCs using magnetic beads (Miltenyi Biotec) according to the manufacturer's protocol. CD4+ T cells were routinely more than 97% pure.
CD4^+ T cells were labelled with 0.5 μM CFSE (Invitrogen) for 10 min at 37° C., washed and stimulated (1.5×10^5 cells/well) with aAPC at a ratio of 1:1 (cells to beads) comprised of magnetic beads in triplicate in 96-well round-bottom plates (Falcon; BD Biosciences). Cultures were incubated at 37° C., 5% CO2 for 5 days and then proliferation of CFSE labelled CD4^+ T cells were measured by flow cytometry (FACS Canto, […]).
Magnetic beads (DYNABEADS® M-450 Epoxy, Dynal Biotech) were coated with the following mAbs as described in Serriari et al. (serriari, ji 2010): anti-CD3 (OKT3), anti-human CD28 (CD28.2), and/or various concentrations of anti-human CD277 (CD277, 20.1) or IgG1 or anti-MHC class I (MHC I) (YJ4) or IgG1. These aAPCs were coated with suboptimal anti-CD3 Ab (5%), suboptimal levels of anti-CD28 Ab (10%), and either IgG1 Ab (CD3/CD28/IgG1), anti-CD277 Ab (CD3/CD28/CD277+IgG1) or anti-MHC class I (CD3/28/anti-MHC class I+IgG1), constituting the remaining 85% of protein added to the bead. The amount of protein was kept constant at […] by the addition of control IgG 1. […]

[1] = test system: Daudi, K562 or Raji cells lines; assay: Anti-tumor cytolysis by Vγ9Vδ2 T cells against tumor cell lines (CD107a/b degranulation); assay type: cell-based, human
Procedure: We used for γδ T cells labelling in purity test after expansion, anti-CD3 PE-Cy7 and anti-Vδ2 FITC mAb (BD Pharmingen). For CD277 characterisation in different subsets PBMC were incubated with the following antibodies and molecules: anti-CD3 PE-Cy5 (BD Pharmingen), anti-CD4 PB (BD Pharmingen), anti-CD8 PB (BD Pharmingen), anti-Vδ2 FITC (BD Pharmingen), anti-CD27 APC ALEXA FLUOR® 750 (CALTAG Laboratory), anti-CCR7 PECy7 (BD Pharmingen), anti-CD28 PE (Beckman Coulter), anti-CD45RA ECD (Beckman Coulter), LIVE/DEAD® Fixable Dead Cell Stain Kit (L34957, Invitrogen) and anti-CD277 labelled with ALEXA FLUOR® 647 (Protein labelling Kit ALEXA FLUOR® 647, Molecular Probes, Invitrogen). For analysis of CD107a and CD107b expression, γδ T cells and target cells were co-incubated at 37° C. with anti-CD107a FITC and anti-CD107b FITC in presence of monensin (10 μM, GOLIGISTOP®, BD Bioscience). […] All samples were measured on FACSCANTO® or FACSARIA® flow cytometers (BD Biosciences) using FACSDIVA® software. […]
Target cells were labelled with 20 μCi of 51Cr (PerkinElmer) for 1 h at 37° C. […] The radioactivity released by target cells was measured, 4 h later, on beta plate counter. The percentage of specific 51Cr lysis was calculated using the following equation: percent specific lysis=100×[(test release)−(spontaneous release)]/[(maximal release)−(spontaneous release)].

B1: mAb 20.1: murine anti-CD277 antibody obtainable from the hybridoma CNCM I-4402; agonist (antibody, V domains shown)
VH: QVQLQQSGAELVKPGASVKLSCKASGYTFTRYYLYWVKQRPGQGLEWIGEINPNNGGTKFNEKFKSKATLTVDKSSRTTYIQLSSLTSEDSAVYYCSREDDYDGTPDAMDYWGQGTAVTVSS
VL: DIQMNQSPSSLSASLGDTITITCHASQNINLWLSWYQQRPGNIPKLLIYRASNLHTGVPSRFSGSGSATGFTLTISSLQPEDIATYYCQQGHSYPYTFGGGTKLDIK
In the case of B1, the “circulating blasts (Percentage of variation of the absolute number of blasts in blood before and 4 days after the end of treatment)” value (primary AML blasts) is reported as 37.38±39.89, the “secretion of cytokines induced by anti-CD3 and anti-CD28 stimulation (INFg, IL-2, IL-10)” value (CD4+ T cells; dose-dependent, supernatants day 2) is reported as “increased” and the “cells entered division (CFSE dilution)” value (CD4+ T cells; with anti-CD3 plus anti-CD28 on beads, day 5, anti-CD277 at 17 μg/ml) is reported as 90%. For the same molecule, the “function/activation of Vγ9Vδ2 T cells against tumor targets (CD107a/b degranulation assay)” value [1] was “potentiated or revealed”.

Source: patent US11904004B2, “Anti-CD277 antibodies” (INSTITUT NATIONAL DE LA SANTE ET DE LA RECHERCHE MEDICALE …, priority 2010, dated 2024)
